Measured values reported in the RNAGym collection of RNA variant scans (doi:10.1073/pnas.2313332121).

B1: TPR t1 (parent)
chain: GACCAAUCUGCCCUCAGAGCUCGAGAACAUCUUCGGAUGCAGAGGAGGCAGGCUUCGGUGGCGCGAUAGCGCCAACGUCCUCAACCUCCAAUGCAUCCCACCACAUGAUGAUGCCUGAAGAGCCUUGGUUUUUUG

Variants of: B1
Assay: polymerase ribozyme fitness, log enrichment relative to wild type (log ratio); higher = more active; in vitro selection for triplet polymerase activity
How it was run: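 Frozen incubation at −7 °C formed the core of a single, triplicate in vitro selection round applied to PCR-built, transcribed mutant libraries of each subunit of a heterodimeric triplet polymerase ribozyme. Extended constructs were gel-excised, captured with streptavidin beads and amplified by RT-PCR, and input and output libraries were Illumina-sequenced with a filter of ≥10 input reads and ≥1 read per output. Fitness is the logarithm of genotype enrichment relative to wild-type enrichment, with inverse-variance-weighted replicate averaging, and the logarithm is base 2.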

Going from G23A C73G to C34U C86A C114U, the “polymerase ribozyme fitness (log ratio)” value falls from -3.9 to -5.07.

Compared with C40A C124U, C73A U106G G110C is lower in “polymerase ribozyme fitness (log ratio)” value: 0.897 for the first, -4.6 for the second.

Compared with C13A G17C, U7C G48U A50G G61A C89U is higher in “polymerase ribozyme fitness (log ratio)” value: -4.33 for the first, -1.71 for the second.

First: G17U U38A G61U U125A
Second: C4G C15U
The “polymerase ribozyme fitness (log ratio)” value of the first is lower: -3.94 for the first, -2.66 for the second.

Compared with C62U U92A, C70U G107C G122A is lower in “polymerase ribozyme fitness (log ratio)” value: -3.44 for the first, -5.12 for the second.

First: U21A U92A
Second: C22U G57A G63U
The “polymerase ribozyme fitness (log ratio)” value of the first is higher: -3.73 for the first, -5.87 for the second.

C4U A27C U54C C82A and A41C C62U are within 0.2 log units of each other in “polymerase ribozyme fitness (log ratio)” value: -3.17 for the first, -2.99 for the second.

C15A A41U G60C U133A and G19A A41U C62U C94U are within 0.2 log units of each other in “polymerase ribozyme fitness (log ratio)” value: -3.25 for the first, -3.23 for the second.

Going from A6C G48U U87C G110U to A5U G61U, the “polymerase ribozyme fitness (log ratio)” value rises from -2 to -0.313.

Compared with C4G A18C A46G A83U G128A, G77A is higher in “polymerase ribozyme fitness (log ratio)” value: -5.74 for the first, -0.264 for the second.

Compared with C22A G44U G93A C124U, A26U G52U C94G C114A is lower in “polymerase ribozyme fitness (log ratio)” value: -4.53 for the first, -7.17 for the second.

Going from G42A C72A C114U to C22G A46U C76U C98U, the “polymerase ribozyme fitness (log ratio)” value falls from -2.37 to -5.32.

Going from A2G C8G G57U C85A to U59G A111C, the “polymerase ribozyme fitness (log ratio)” value rises from -1.4 to 0.213.

A5U G57A C70U and A29G G60C U131A are within 0.2 log units of each other in “polymerase ribozyme fitness (log ratio)” value: -1.67 for the first, -1.85 for the second.

Compared with G60A U131G, A111C G122A is lower in “polymerase ribozyme fitness (log ratio)” value: 0.0187 for the first, -0.308 for the second.

Going from A50U C56A G69C C80G C104G C115G C123U U130C to A37U U112A U125C, the “polymerase ribozyme fitness (log ratio)” value rises from -8.59 to 1.04.

Going from G51A U106A to C12U G120C, the “polymerase ribozyme fitness (log ratio)” value rises from -2.35 to 2.

Going from A29G G60A to C62U G113C G127C, the “polymerase ribozyme fitness (log ratio)” value falls from -1.42 to -3.6.

Going from C34A G52A U96C C124A to A2U C11G G122A, the “polymerase ribozyme fitness (log ratio)” value rises from -1.41 to -0.62.

First: A66C U133A
Second: C40G A111C
The “polymerase ribozyme fitness (log ratio)” value of the first is lower: -0.805 for the first, -0.485 for the second.

Going from C56G U125A to A41U G60U, the “polymerase ribozyme fitness (log ratio)” value falls from -1.54 to -1.91.

Going from U109C A121U to G45A G107A A121C, the “polymerase ribozyme fitness (log ratio)” value falls from -3.68 to -6.43.

First: C12U A46C G52U
Second: C86A U92A G93C G120A
The “polymerase ribozyme fitness (log ratio)” value of the first is higher: -0.969 for the first, -4.42 for the second.

Going from C22A A43C U78C A83C C86U G113A to A2C G69C A121U, the “polymerase ribozyme fitness (log ratio)” value rises from -5.47 to -0.282.

Going from U7G A83U to G44C A50C G60U, the “polymerase ribozyme fitness (log ratio)” value falls from -0.221 to -1.12.

Compared with C22A G93U, A46C A100U U131G is higher in “polymerase ribozyme fitness (log ratio)” value: -6.27 for the first, -1.22 for the second.

U59G U130G and C70U C104U are within 0.2 log units of each other in “polymerase ribozyme fitness (log ratio)” value: -0.605 for the first, -0.703 for the second.

Going from C22A U129G to C8U C40G G63U A100G, the “polymerase ribozyme fitness (log ratio)” value rises from -6.22 to -5.92.

Compared with C12A G117U U131C, A75U C97A is lower in “polymerase ribozyme fitness (log ratio)” value: -4.17 for the first, -5.53 for the second.

Going from A2U A46G C73U U81C to G120C C124U, the “polymerase ribozyme fitness (log ratio)” value rises from -3.83 to 1.74.

A5G C62U C88G U112C C123A C124A U130A and G10U C13G U78A C104U are within 0.2 log units of each other in “polymerase ribozyme fitness (log ratio)” value: 0.112 for the first, 0.299 for the second.

Going from C15U U78C A83C C97A C101A U109A to C20U G44A A74G U87C U92A G93A C124U, the “polymerase ribozyme fitness (log ratio)” value rises from -5.99 to -3.64.

Going from A29U C40U C49A A68G U106A to G71A C98U C101A, the “polymerase ribozyme fitness (log ratio)” value rises from -4.25 to -3.15.

Going from C8G C89A C94G to C12U C40G, the “polymerase ribozyme fitness (log ratio)” value rises from -2.14 to -0.0831.

C79G C123U and G63C C86U U112A are within 0.2 log units of each other in “polymerase ribozyme fitness (log ratio)” value: 0.127 for the first, 0.23 for the second.

First: C62U C114A
Second: C56A C97U G113U
The “polymerase ribozyme fitness (log ratio)” value of the first is higher: -1.35 for the first, -4.2 for the second.

Going from G10A A37U G47C U112C U131A to C8G A68G, the “polymerase ribozyme fitness (log ratio)” value falls from -0.391 to -2.09.

First: C13G C62U A100C U112C
Second: A26C C53U C56G
The “polymerase ribozyme fitness (log ratio)” value of the first is higher: -1.47 for the first, -5.02 for the second.

Going from G25U G36U to C20U C40G, the “polymerase ribozyme fitness (log ratio)” value rises from -6.39 to -2.17.

Compared with C3U C22G G39U C49G C70U G110U, U14C C80U is higher in “polymerase ribozyme fitness (log ratio)” value: -5.2 for the first, -2.7 for the second.

First: C40G G61U C72G G117C
Second: C49U U54G U59A C79U C101A G113U
The “polymerase ribozyme fitness (log ratio)” value of the first is higher: -4.91 for the first, -5.96 for the second.

Going from C62U C85A C101G to C12U C13A A27G G93A, the “polymerase ribozyme fitness (log ratio)” value falls from -3.99 to -5.78.
